Measured values reported in patent US5580854A, “Substrate-related peptidyl-aldehyde inhibitors of the proteolytic activity of the multicatalytic proteinase complex” (Mount Sinai School of Medicine of The City University of …, priority 1994, dated 1996).

Legend:
Assay in all cases: Kinetic parameters for degradation of synthetic substrates by the BrAAP component
Type in all cases: biochemical, bovine
[1] = substrate: CC(C)C[C@H](NC(=O)[C@H](C)NC(=O)CNC(=O)[C@@H]1CCCN1C(=O)OCc1ccccc1)C(=O)N[C@@H](C)C(=O)Nc1ccc(C(=O)O)cc1; conditions: other: [S] 1.6-8.0; mean of 2 determinations; from plots of 1/v vs 1/s
Excerpt: (§1) A coupled two step reaction in the presence of excess aminopeptidase N (AN) was used for the determination of the BrAAP and SNAAP activities as described previously (Orlowski et al., Biochemistry 32:1563-1572 (1993)). Aminopeptidase N was purified from hog kidneys as described by Pfleiderer, Meth. Enzymol. 19:514-521 (1970) and freed from the contaminating metalloendopeptidase (EC 3.4.24.11) as previously described (Almenoff & Orlowski, Biochemistry 22:590-599 (1983)).
(§2) The flexibility of the amino acid residue in the P4 position of the inhibitors of the present invention is based on results of substrate specificity studies of the BrAAP component. Activities towards various analogs of the prototypic BrAAP substrate Cbz-Gly-Pro-Ala-Leu-Gly-pAB were determined using the coupled two-step reaction carried out in the presence of AN, as described in Example 4. The BrAAP substrates tested included the following:
(§3) Data represent mean values for 2 separate determinations. For substrates
(§4) with MichaelisMenten kinetics, Km and kcat were determined from
(§5) the regression line fitted to plots of 1/v vs 1/s. Kcat was estimate
(§6) assuming a molecular mabs of 700 KDa and assuming one active site per
(§7) molecule. […] The apparent Km for
(§8) this substrate is taken as the substrate concentration at half of the
(§9) Vmax observed. kcat for this substrate was calculated assuming
(§10) Vmax of 300 U/mg and assuming one active site per molecule of MPC.

[2] = substrate: CC(C)C[C@H](NC(=O)OCc1ccccc1)C(=O)NCC(=O)N[C@@H](C)C(=O)N[C@@H](CC(C)C)C(=O)N[C@@H](C)C(=O)Nc1ccc(C(=O)O)cc1; conditions: other: [S] 1.6-8.0; mean of 2 determinations; from plots of 1/v vs 1/s
Excerpt: as §1, §2, §3, §4, §5, §6, §7, §8, §9, §10

[3] = substrate: CC(C)C[C@H](NC(=O)[C@H](C)NC(=O)CNC(=O)CNC(=O)OCc1ccccc1)C(=O)N[C@@H](C)C(=O)Nc1ccc(C(=O)O)cc1; conditions: other: [S] 0.8-4.8; sigmoidal kinetics; substrate concentration at half of the Vmax observed
Excerpt: as §1, §2, §3, §4, §5, §6, §7, §8, §9, §10

B1: BRAAP component of the MPC (Bos taurus) (protein)
chain 1: TTTLAFKFRHGVIVAADSRATAGAYIASQTVKKVIEINPYLLGTMAGGAADCSFWERLLARQCRIYELRNKERISVAAASKLLANMVYQYKGMGLSMGTMICGWDKRGPGLYYVDSEGNRISGATFSVGSGSVYAYGVMDRGYSYDLEVEEAYDLARRAIYQATYRDAYSGGSVSLYHVREDGWIRVSSDNVADLHDKYSGSTH
chain 2: TTIMAVQFDGGVVLGADSRTTTGSYIANRVTDKLTPIHDRIFCCRSGSAADTQAVADAVTYQLGFHSIELNEPPLVHTAASLFKEMCYRYREDLMAGIIIAGWDPQEGGQVYSVPMGGMMVRQPFAIGGSGSSYIYGYVDATYREGMTKEECLQFTANALALAMERDGSSGGVIRLAAIAEPGVERQVLLGDQIPKFTIATLPPL
chain 3: TTIAGVVYKDGIVLGADTRATEGMVVADKNCSKIHFISPNIYCCGAGTAADTDMTTQLISSNLELHSLSTGRLPRVVTANRMLKQMLFRYQGYIGAALVLGGVDVTGPHLYSIYPHGSTDKLPYVTMGSGSLAAMAVFEDKFRPDMEEEEAKKLVSEAIAAGIFNDLGSGSNIDLCVISKSKLDFLRPYSVPNKKGTRFGRYRCEKGTNAVLTEKVTTLEIEVLEETVQTMDTS
notes: The MPC was isolated from frozen bovine pituitaries; tissue PelFreeze, Inc. (Rogers, Ark.) (supplier of the tissue; the enzyme was purified in house); host or cells: bovine pituitaries
- Km [1]: 8.7 mM
- kcat [1]: 8.4 s⁻¹
- kcat/Km [1]: 960 M⁻¹ s⁻¹
- Km [2]: 30 mM
- kcat [2]: 24 s⁻¹
- kcat/Km [2]: 820 M⁻¹ s⁻¹
- Km [3]: 2.5 mM
- kcat [3]: 58 s⁻¹
- kcat/Km [3]: 23,300 s^-1 M^-1
